# Assay results taken from patent US7951775B2, “Methods and pharmaceutical compositions for GnRH-I and GnRH-II modulation of T-cell activity, adhesion, migration and extravasation” (priority 2001, dated 2011).
# Tested on: mouse antigen-specific T cells
# Test: Atlas mouse cDNA expression array of GnRH-II treated T-cells
# Assay type: cell-based
# Description: Anti-MBP 87-99 T-cell lines were established from lymph nodes of SJI/J mice as described^23 and analyzed for their specificity to MBP 87-99 peptide in a proliferation assay.
# Poly A+RNA was extracted from the mouse anti-MBP 87-99 cell line before and after treatment with 10 nM GnRH-II for 24 hours, using the ATLAS Pure Total RNA Labeling System (Clontech Laboratories, Inc. Palo Alto, Calif.) according to manufacturers recommendations. Following DNase treatment, ^32P-labeled cDNA was prepared from poly A+ RNA preparations that were prepared from either untreated or GnRH-II treated mouse T-cells. Hybridizations to the ATLAS Mouse cDNA Expression Arrays membranes (Catalog No. PT3140-1, Clontech Laboratories), were performed according to the user manual, and the expression pattern was visualized by autoradiography.
# Poly A+ RNA was prepared from both GnRH-II-treated and untreated cells and reverse transcribed to ^32P-labeled cDNA. Using an Atlas cDNA expression array (i.e. a positively charged nylon membrane spotted with 1200 different cDNAs) for identification of effected genes, the reverse transcribed products were characterized by hybridization to the atlas membranes. The differential pattern of expression between untreated cells and GnRH-II-treated cells was visualized by autoradiography (FIGS. 1A and 1B).
molecule,measurement,setting,value
"GnRH-II: unique ten amino acid long neuropeptide, 70% homologous in peptide structure to GnRH-I, encoded by its own gene (peptide) peptide: QHWSHGWYPGGKRALSSAQDPQNALRPPGRALDTAAGSPVQTAHGLPSDALAPLDDSMPWEGRTTAQWSLHRKRHLARTLLTAAREPRPAPPSSNKV",expression of mRNA encoding non-integrin 67 kDa laminin receptor,"10 nM, 24 hours, resting mouse antigen-specific T-cells, vs untreated cells",induced the over expression
same,transcription of other genes including house-keeping gene nucleoside diphosphate kinase B,"10 nM, 24 hours, vs untreated cells",not affected
same,"synthesis of CD4 antigen, Cyclin D2 and thymus cell antigen 1 genes (changed by antigenic stimulation)","GnRH-II alone 10 nM, data not shown",did not affect
